# Test results from the supplement of paper PMC7877785.
# ± gives the uncertainty stated by the source.
# Test: self-splicing fitness, log relative to wild type (ln ratio); higher = more splicing; Tetrahymena group I intron in knt gene, E. coli kanamycin selection, DiMSum; sequences stand for … in CUCUCU…GGAGGGAAAAGUUAUCAGGCAUGCACCUGGUAGCUAGUCUUUAAACCAAUAGAUUGCAUCGGUUUAAAAGGCAAGACCGUCAAAUUGCGGGAAAGGGGUCAACAGCCGUUCAGUACCAAGUCUCAGGGGAAACUUUGAGAUGGCCUUGCAAAGGGUAUGGUAAUAAGCUGACGGACAUGGUCCUAACCACGCAGCCAAGUCCUAAGUCAACAGAUCUUCUGUUGAUAUGGAUGCAGUUCACAGACUAAAUGUCGGUCGGGGAAGAUGUAUUCUUCUCAUAAGAUAUAGUCGGACCUCUCCUUAAUGGGAGCUAGCGGAUGAAGUGAUGCAACACUGGAGCCGCUGGGAACUAAUUUGUAUGCGAAAGUAUAUUGAUUAGUUUUGGAGUACUCGUGGUCG
# Procedure, shortened: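 Library with all eight P1ex-region intron nucleotides randomised, intron inside the knt kanamycin-resistance gene on pET-22b(+), in E. coli BL21(DE3). Cells grew overnight at 37°C or 30°C on LB agar with or without 25 μg/mL kanamycin (plus 100 μg/mL carbenicillin, 50 μM IPTG, 0.2% rhamnose), in six replicate transformations. Pooled colonies were amplicon-sequenced on Illumina HiSeq 2500. DiMSum fitness is the error-weighted combination of wild-type-normalised replicate fold changes, kanamycin versus none.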
Sequence,self-splicing fitness (ln) (30 °C),self-splicing fitness (ln) (37 °C)
GGCAAGCAAUAUUACGAUAC,-0.974 ± 0.076,-0.363 ± 0.087
GGCAAGCAAUAUUACGAUUU,-0.299 ± 0.058,0.164 ± 0.077
GGCAAGCAAUAUUACGCCAG,–,-2.52 ± 0.41
GGCAAGCAAUAUUACGCCGU,-2.44 ± 0.34,-0.00259 ± 0.29
GGCAAGCAAUAUUACGCGAG,-2.32 ± 0.14,-3.34 ± 0.24
GGCAAGCAAUAUUACGCGCU,-3.35 ± 0.42,-3.25 ± 0.43
GGCAAGCAAUAUUACGCGGU,-2.97 ± 0.14,-1.37 ± 0.12
GGCAAGCAAUAUUACGCGUU,-0.907 ± 0.075,-0.815 ± 0.1
GGCAAGCAAUAUUACGCUGC,-3.37 ± 0.27,–
GGCAAGCAAUAUUACGGAGG,-4.1 ± 0.18,-2.87 ± 0.16
GGCAAGCAAUAUUACGGAUA,-0.889 ± 0.1,-0.586 ± 0.097
GGCAAGCAAUAUUACGGAUC,-0.625 ± 0.096,-0.11 ± 0.099
GGCAAGCAAUAUUACGGCGG,-2.44 ± 0.19,-1.13 ± 0.2
GGCAAGCAAUAUUACGGGAC,-2.46 ± 0.13,-0.918 ± 0.1
GGCAAGCAAUAUUACGGUCU,-0.851 ± 0.093,-0.575 ± 0.1
GGCAAGCAAUAUUACGUAAG,-0.742 ± 0.072,-1 ± 0.1
GGCAAGCAAUAUUACGUAUA,-1.02 ± 0.066,-0.515 ± 0.07
GGCAAGCAAUAUUACGUCCC,–,-0.249 ± 0.28
GGCAAGCAAUAUUACGUGGC,-3.53 ± 0.34,-1.28 ± 0.19
GGCAAGCAAUAUUACGUGGG,-3.42 ± 0.13,-1.85 ± 0.1
GGCAAGCAAUAUUACGUUAC,-1.39 ± 0.12,-1.5 ± 0.14
GGCCAGCAAUAUUACGAAGC,-2 ± 0.11,0.134 ± 0.13

Sequence,self-splicing fitness (ln) (30 °C),self-splicing fitness (ln) (37 °C)
GGCCAGCAAUAUUACGACAU,-1.21 ± 0.013,-0.437 ± 0.032
GGCCAGCAAUAUUACGAGCU,-2.58 ± 0.4,–
GGCCAGCAAUAUUACGAUCG,-3.35 ± 0.3,-1.27 ± 0.15
GGCCAGCAAUAUUACGCAAC,-1.19 ± 0.1,-0.97 ± 0.12
GGCCAGCAAUAUUACGCAGC,-3.08 ± 0.37,-1.88 ± 0.33
GGCCAGCAAUAUUACGCAGU,-1.37 ± 0.12,-1.86 ± 0.19
GGCCAGCAAUAUUACGCCAG,-3.88 ± 0.37,-1.59 ± 0.35
GGCCAGCAAUAUUACGCCAU,-3.57 ± 0.33,-2.12 ± 0.28
GGCCAGCAAUAUUACGCGCA,-0.425 ± 0.1,0.666 ± 0.13
GGCCAGCAAUAUUACGCGCC,-3.11 ± 0.24,-2.05 ± 0.44
GGCCAGCAAUAUUACGCUGA,-0.636 ± 0.063,-0.331 ± 0.074
GGCCAGCAAUAUUACGGAAG,-1.79 ± 0.082,-0.69 ± 0.11
GGCCAGCAAUAUUACGUAUA,-3.92 ± 0.26,-2.23 ± 0.2
GGCCAGCAAUAUUACGUCAC,-2.59 ± 0.34,–
GGCCAGCAAUAUUACGUGAC,-2.05 ± 0.09,-1.16 ± 0.11
GGCCAGCAAUAUUACGUGAU,-1.31 ± 0.075,-0.482 ± 0.097
GGCCAGCAAUAUUACGUGUU,-0.771 ± 0.055,-0.0103 ± 0.07
GGCGAGCAAUAUUACGAACA,-1.16 ± 0.16,-0.12 ± 0.14
GGCGAGCAAUAUUACGAAUG,-3.21 ± 0.18,-2.84 ± 0.2
GGCGAGCAAUAUUACGACUU,0.166 ± 0.15,0.444 ± 0.14
GGCGAGCAAUAUUACGAGUA,-1.9 ± 0.35,-1.99 ± 0.22
